Measurements: patent US6884600 (MEDICAL RESEARCH COUNCIL LONDON, dated 2005)

Legend:
[1] = target: T1, myosin from chicken gizzard, dephosphorylated form (chicken, UniProt P10587 2-1979; P02612 2-172; P02607 2-151); assay: co-sedimentation with myosin, immunoblot
T1 construct: mature; Native protein pelleted by centrifugation; 1 µM in terms of heavy chains; also called myosin dimer
Description: (§1) (A); PP1_M, $M110$-(M1-S477) and GST-$M110$-(M377-K976), each at 30 nM were incubated for 15 min at 0° C. with 1 μM myosin and centrifuged. The supernatants (S), resuspended pellets (P) and the suspension before centrifugation (T, total) were electrophoresed on 12% SDS/polyacrylamide gels, transferred to nitrocellulose and immunoblotted with antibodies raised against the PP1_M holoenzyme. No protein was pelleted in the absence of myosin (not shown). The positions of the marker proteins myosin heavy chain (200 kDa), glycogen phosphorylase (97 kDa), bovine serum albumin (66 kDa), ovalbumin (43 kDa), carbonic anhydrase (29 kDa) and soybean trypsin inhibitor (20 kDa) are indicated. […] A small amount of $M110$-(R714-I1004) pelleted in the absence of myosin. […] No other protein was pelleted in the absence of myosin.
(§2) Myosin binding assays. Myosin (0.5 mg/ml, 1 µM in terms of myosin heavy chains) in 10 mM Hepes pH 7.5, 50 mM KCl, 5 mM MgCl2, 0.1% (by vol) 2-mercaptoethanol, was mixed with PP1_M, M$21$ subunit, or fragments of the M$110$ and M$21$ subunits, at the concentrations indicated in figure legends. After incubation for 15 min at 0° C., the solutions were centrifuged for 2 min at 13,000×g, the supernatants removed, and the pellets washed twice in 10 mM Hepes pH 7.5, 50 mM KCl, 5 mM MgCl2, 0.1% (by vol) 2-mercaptoethanol before resuspension in 50 mM Tris-HCl pH 7.5, 0.1 mM EGTA, 0.03% (by mass) Brij 35, 0.6 M NaCl, 0.1% (by vol) 2-mercaptoethanol. Aliquots of the supernatant, the resuspended pellet and the suspension before centrifugation were either assayed for myosin P-light chain phosphatase activity or denatured in SDS and analysed by SDS/polyacrylamide gel electrophoresis.

[2] = target: T2, β isoform of PP1c released from rabbit skeletal muscle PP1G (rabbit, UniProt P62143 2-327); assay: cell-based or functional assay
T2 sequence (P62143 2-327): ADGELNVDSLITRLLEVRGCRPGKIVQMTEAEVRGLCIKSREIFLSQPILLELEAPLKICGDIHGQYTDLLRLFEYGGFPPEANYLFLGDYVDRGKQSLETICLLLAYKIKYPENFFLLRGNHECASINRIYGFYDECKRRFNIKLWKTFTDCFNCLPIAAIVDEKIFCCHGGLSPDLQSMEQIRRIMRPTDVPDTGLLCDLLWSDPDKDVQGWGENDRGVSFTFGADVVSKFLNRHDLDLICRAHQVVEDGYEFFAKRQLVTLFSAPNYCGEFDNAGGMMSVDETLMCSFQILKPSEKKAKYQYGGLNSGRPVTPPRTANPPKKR

[3] = target: T1, myosin from chicken gizzard, …; assay: co-sedimentation, 30 nM with 1 µM myosin, immunoblot
Description: as §1
(§3) Myosin binding assays. Myosin (0.5 mg/ml, 1 µM in terms of myosin heavy chains) in 10 mM Hepes pH 7.5, 50 mM KCl, 5 mM MgCl2, 0.1% (by vol) 2-mercaptoethanol, was mixed with PP1_M, M$21$ subunit, or fragments of the M$110$ and M$21$ subunits, at the concentrations indicated in figure legends. […] Aliquots of the supernatant, the resuspended pellet and the suspension before centrifugation were either assayed for myosin P-light chain phosphatase activity or denatured in SDS and analysed by SDS/polyacrylamide gel electrophoresis.

[4] = target: PP1GL, glycogen-associated form of PP1 in rat hepatic glycogen-protein particles (rat); assay: cell-based or functional assay
[5] = target: PP1M, myosin-associated form of PP1 from chicken gizzard (chicken, UniProt P62207 2-327); assay: cell-based or functional assay
PP1M, myosin-associated form of PP1 from chicken gizzard, sequence (P62207 2-327): as the sequence (P62143 2-327) above

[6] = target: T2, β isoform of PP1c released from rabbit …; assay: phosphatase assays and changed crystal form of PP1c
[7] = target: T1, myosin from chicken gizzard, …; assay: co-sedimentation with myosin
[8] = target: T1, myosin from chicken gizzard, …; assay: co-sedimentation with myosin (as PP1M lacking M21)
Description: The PP1 catalytic subunit (PP1c), PP1_M, or PP1_M lacking the $M21$ subunit, $PP1_M(\Delta M21)$, each at 30 nM, were incubated for 15 min at 0° C. with 1 μM myosin and centrifuged (see Methods of Example 3). […] The results shown are the average (±S.E.M.) for three separate experiments each assayed in duplicate.
as §2

[9] = target: T1, myosin from chicken gizzard, …; assay: summary of the co-sedimentation experiments
Description: as §1, §3

T1 sequence (P10587 2-1979, chain 1 of 3): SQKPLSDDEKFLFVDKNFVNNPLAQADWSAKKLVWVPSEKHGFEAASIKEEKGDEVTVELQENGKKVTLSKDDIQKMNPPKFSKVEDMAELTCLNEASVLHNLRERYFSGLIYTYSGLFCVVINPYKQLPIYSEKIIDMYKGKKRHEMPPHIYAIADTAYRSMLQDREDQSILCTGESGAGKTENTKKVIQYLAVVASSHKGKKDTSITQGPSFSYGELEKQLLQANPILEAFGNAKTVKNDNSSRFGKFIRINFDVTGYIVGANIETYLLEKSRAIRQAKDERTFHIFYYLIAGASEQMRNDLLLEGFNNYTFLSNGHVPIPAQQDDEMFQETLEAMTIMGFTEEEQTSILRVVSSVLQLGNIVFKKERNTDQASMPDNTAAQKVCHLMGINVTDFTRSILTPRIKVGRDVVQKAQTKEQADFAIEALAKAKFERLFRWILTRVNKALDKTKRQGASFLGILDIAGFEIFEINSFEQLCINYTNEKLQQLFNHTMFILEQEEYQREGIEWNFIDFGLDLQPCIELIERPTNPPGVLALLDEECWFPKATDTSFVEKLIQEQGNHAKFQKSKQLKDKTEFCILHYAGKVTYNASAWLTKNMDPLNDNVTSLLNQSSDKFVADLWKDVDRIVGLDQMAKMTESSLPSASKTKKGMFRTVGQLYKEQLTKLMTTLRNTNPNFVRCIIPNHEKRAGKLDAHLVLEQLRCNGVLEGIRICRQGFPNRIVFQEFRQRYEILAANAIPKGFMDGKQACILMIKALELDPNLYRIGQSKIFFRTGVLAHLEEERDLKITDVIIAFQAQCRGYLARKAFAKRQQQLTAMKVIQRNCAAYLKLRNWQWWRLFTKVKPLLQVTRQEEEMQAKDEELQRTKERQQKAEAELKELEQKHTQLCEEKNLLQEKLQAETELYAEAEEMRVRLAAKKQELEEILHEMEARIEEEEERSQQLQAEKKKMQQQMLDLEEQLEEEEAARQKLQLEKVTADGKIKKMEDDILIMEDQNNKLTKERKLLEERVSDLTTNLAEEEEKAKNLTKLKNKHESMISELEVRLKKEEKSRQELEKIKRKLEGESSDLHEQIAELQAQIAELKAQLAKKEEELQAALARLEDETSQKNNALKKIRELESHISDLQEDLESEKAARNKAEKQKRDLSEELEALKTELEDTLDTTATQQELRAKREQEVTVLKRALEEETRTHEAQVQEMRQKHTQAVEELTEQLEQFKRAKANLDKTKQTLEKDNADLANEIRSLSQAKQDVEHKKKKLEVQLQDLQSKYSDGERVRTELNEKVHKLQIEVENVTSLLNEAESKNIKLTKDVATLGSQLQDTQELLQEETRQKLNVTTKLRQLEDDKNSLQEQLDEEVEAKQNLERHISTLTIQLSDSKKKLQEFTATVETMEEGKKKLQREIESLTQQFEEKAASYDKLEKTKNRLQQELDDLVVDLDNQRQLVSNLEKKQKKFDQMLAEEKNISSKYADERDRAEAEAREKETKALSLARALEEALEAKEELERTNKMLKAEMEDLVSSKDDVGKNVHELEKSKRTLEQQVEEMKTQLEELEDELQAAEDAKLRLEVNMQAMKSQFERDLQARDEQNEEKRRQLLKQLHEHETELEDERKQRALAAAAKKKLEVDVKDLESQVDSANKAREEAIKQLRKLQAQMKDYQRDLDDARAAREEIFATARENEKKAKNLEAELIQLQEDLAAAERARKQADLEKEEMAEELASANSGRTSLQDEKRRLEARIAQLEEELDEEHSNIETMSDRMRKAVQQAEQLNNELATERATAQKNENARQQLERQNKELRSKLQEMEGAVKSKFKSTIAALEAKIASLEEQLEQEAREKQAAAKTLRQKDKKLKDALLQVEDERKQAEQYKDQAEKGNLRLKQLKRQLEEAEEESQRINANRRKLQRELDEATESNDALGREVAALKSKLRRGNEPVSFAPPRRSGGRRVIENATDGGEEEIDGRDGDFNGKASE
T1 sequence (P02612 2-172, chain 2 of 3): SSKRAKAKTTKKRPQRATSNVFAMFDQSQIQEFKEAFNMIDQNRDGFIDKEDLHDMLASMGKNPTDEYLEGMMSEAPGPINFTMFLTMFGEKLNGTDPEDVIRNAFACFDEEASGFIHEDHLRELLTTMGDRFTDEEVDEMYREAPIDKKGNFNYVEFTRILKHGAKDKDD
T1 sequence (P02607 2-151, chain 3 of 3): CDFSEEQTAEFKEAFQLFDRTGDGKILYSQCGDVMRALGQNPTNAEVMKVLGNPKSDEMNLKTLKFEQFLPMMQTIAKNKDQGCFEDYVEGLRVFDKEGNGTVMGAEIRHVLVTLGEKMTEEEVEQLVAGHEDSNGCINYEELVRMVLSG

B1: M110-(K933-I1004), C-terminal 72 residues of the chicken gizzard M110 subunit, released from MBP with Factor Xa (other)
chain: KLYEQILAENEKLKAQLHDTNMELTDLKLQLEKTTQRQERFADRSLLEMEKRVSGKSQYLLGGKKSSRKKDI
notes: also called 8.5 kDa M110-(K933-I1004) fragment
B1: no binding (tested: 100 nM with 1 µM myosin) [1].

With MKMADAKQKRNEQLKRWIGSETDLEPPVVKRQKTK [M110[M1-K35] synthetic peptide] the “effectiveness at activating the myosin light chain phosphatase activity of PP1c relative to M110[1-38]” value [2] was ≥ 10000 fold.

B2: M110-(M1-A150), released from GST with thrombin (other)
chain: GSPGMKMADAKQKRNEQLKRWIGSETDLEPPVVKRQKTKVKFDDGAVFLAACSSGDTDEVLKLLHRGADINYANVDGLTALHQACIDDNVDMVKFLVENGANINQPDNEGWIPLHAAASCGYLDIAEFLIGQGAHVGAVNSEGDTPLDIAEEEA
B2 was tested, and the “concentration needed to modify the specificity of PP1, relative to M110-(M1-E309)” value [2] was 10 fold.

B3: GST-M110-(M377-K976), undegraded (other)
chain: MASVTNAHTASTQAAPAAVTTPTLSSNQGTPTSPVKKFPTSTTKISPKEEERKDESPASWRLGLRKTGSYGALAEITASKEAQKEKDTAGVIRSASSPRLSSSLDNKEKEKDNKGTRLAYVAPTIPRRLGSTSDIEEKENRESSNLRTSSSYTRRKWEDDLKKNSSINEGSTYHRSTSNRLWAEDSTEKEKDSAPTAATILVAPTVVSAAASSTTALTTTTAGTLSSTSEVRERRRSYLTPVRDEESESQRKARSRQARQSRRSTQGVTLTDLQEAEKTIGRSRSTRTREQENEEKDKEEKEKQDKEKQEEKKESEVSREDEYKQKYSRTYDETYARYRPVSTSSSSTPSSSSLSTLGSSLYASSQLNRPNSLVGITSAYSRGLTKDNEREGEKKEEEKEGEDKSQPKSIRERRRPREKRRSTGVSFWTQDSDENEQERQSDTEDGSSKRDTQTDSVSRYDSSSTSSSDRYDSLLGRSASYSYLEERKPYGSRLEKDDSTDFKKLYEQILAENEKLKAQLHDTNMELTDLKLQLEKATQRQERFADRSLLEMEKRERRALERRISEMEEELKMLPDLKADNQRLKDENGALIRVISKLSK
notes: also called C-terminal 600 residues of the M110 subunit from rat aorta; not shown: glutathione-S-transferase of vector pGEX-KG with the vector linker
B3: binds [3].

In the case of GRRVSFADNFGFNLVSVKEFDTWELPSVSTT [rabbit GM-(G63-T93) synthetic peptide], the “phosphorylase phosphatase activity of PP1GL” value [4] is reported as 6 fold and the “phosphorylase phosphatase activity of PP1M at 10 µM peptide” value [5] is reported as ~7 fold.

B4: GST-M21 (other, not shown: a dimerising Fc or GST; small tags and cut ends)
chain: MSSLFTRSKEYTRSRKSQSDSPPSSPSPIAKTLRHERLSRLEAATTPATSDSYSDRASSRSSAYSRRENRLAALSSRAEEESNRDYKKLYESALSENQKLKSKLQEAQLELADIKSKLEKAAQQKHEKTSDRSSMLEMEKREKRALERKLSEMEEEMKILTELKSDNQRLKDENGALIRVISKLSK
notes: also called undegraded GST-M21 (47 kDa)
B4: binds [1].

B5: GM-(G63-N75) synthetic peptide (peptide)
peptide: GRRVSFADNFGFN
notes: 13-residue peptide co-crystallised with PP1γ1; also called GM[63-75]; GM peptide
B5: binds [6].

B6: GST-M110-(M1-E309), GST tag not cleaved (other)
chain: MKMADAKQKRNEQLKRWIGSETDLEPPVVKRQKTKVKFDDGAVFLAACSSGDTDEVLKLLHRGADINYANVDGLTALHQACIDDNVDMVKFLVENGANINQPDNEGWIPLHAAASCGYLDIAEFLIGQGAHVGAVNSEGDTPLDIAEEEAMEELLQNEVNRQGVDIEAARKEEERIMLRDARQWLNSGHISDVRHAKSGGTALHVAAAKGYTEVLKLLIQAGYDVNIKDYDGWTPLHAAAHWGKEEACRILVDNLCDMETVNKVGQTAFDVADEDILGYLEELQKKQNLLHSEKRDKKSPLIESTANMEA
notes: not shown: glutathione-S-transferase of vector pGEX-KG with the vector linker (thrombin site)
B6: no binding [7].

For MKMADAKQKRNEQLKRWIGSETDLEPPVVKRQKTKVKF [M110-(M1-F38) synthetic peptide], the “concentration for half maximal activation relative to M110-(M1-E309)” value [2] was ≥ 100 fold, the “maximal activation of the myosin light chain phosphatase activity of PP1c” value [2] was 3 fold and the “phosphorylase phosphatase activity of PP1GL at 10 µM peptide” value [4] was 3.5 fold.

GRRVSFADNFGFNLVSVK (also called peptide 63-80 of GM) [GM-(G63-K80) synthetic peptide]: binds [6].

B7: M110-(M1-S477), released from GST with thrombin (other)
chain: GSPGMKMADAKQKRNEQLKRWIGSETDLEPPVVKRQKTKVKFDDGAVFLAACSSGDTDEVLKLLHRGADINYANVDGLTALHQACIDDNVDMVKFLVENGANINQPDNEGWIPLHAAASCGYLDIAEFLIGQGAHVGAVNSEGDTPLDIAEEEAMEELLQNEVNRQGVDIEAARKEEERIMLRDARQWLNSGHISDVRHAKSGGTALHVAAAKGYTEVLKLLIQAGYDVNIKDYDGWTPLHAAAHWGKEEACRILVDNLCDMETVNKVGQTAFDVADEDILGYLEELQKKQNLLHSEKRDKKSPLIESTANMENNQPQKTFKNKETLIIEPEKNASRIESLEQEKADEEEEGKKDESSCSSEEDEEDDSESEAETDKTKPMASVTNAHTASTQAAPAAVTTPTLSSNQGTPTSPVKKFPTSTTKISPKEEERKDESPASWRLGLRKTGSYGALAEITASKEAQKEKDTAGVIRSASSPRLSSAANSISSLIHRD
B7: no binding (tested: 30 nM with 1 µM myosin) [1].

B8: M110 subunit of chicken gizzard PP1M, full length (other)
chain: MKMADAKQKRNEQLKRWIGSETDLEPPVVKRKKTKVKFDDGAVFLAACSSGDTEEVLRLLERGADINYANVDGLTALHQACIDDNVDMVKFLVENGANINQPDNEGWIPLHAAASCGYLDIAEYLISQGAHVGAVNSEGDTPLDIAEEEAMEELLQNEVNRQGVDIEAARKEEERIMLRDARQWLNSGHINDVRHAKSGGTALHVAAAKGYTEVLKLLIQARYDVNIKDYDGWTPLHAAAHWGKEEACRILVENLCDMEAVNKVGQTAFDVADEDILGYLEELQKKQNLLHSEKREKKSPLIESTANLDNNQTQKTFKNKETLIMEQEKNASSIESLEHEKADEEEEGKKDESSCSSEEEEDDDSESEAETDKAKTLANANTTSTQSASMTAPSVAGGQGTPTSPLKKFPTSTTKVSPKEEERKDESPASWRLGLRKTGSYGALAEITASKEAQKEKDSAGVIRSASSPRLSSSLDNKEKEKDGKGTRLAYVAPTIPRRLASTSDIDEKENRDSSASSIRSGSSYARRKWEEDVKKNSLNEGPTSLNTSYQRSGSFGRRQDDLVSSNVPSTASTVTSSAGLQKTLPASANTTTKSTTGSTSAGVQSSTSNRLWAEDSTEKEKDSVPTAVTVPVAPSVVNAAATTTAMTTATSGTVSSTSEVRERRRSYLTPVRDEESESQRKARSRQARQSRRSTQGVTLTDLQEAEKTIGRSRSTRTREQENEEKEKEEKEKQDKEKQEEKKESETKDDDYRQRYSRTVEEPYHRYRPTSTSTSTSSTSSLSTSTSSLSSSSQLNRPNSLIGITSAYSRSGTKESEREGGKKEEEKEEDKSQPKSIRERRRPREKRRSTGVSFWTQDSDENEQEHQSDSEEGTNKKETQSDSLSRYDTGSLSVSSGDRYDSAQGRSGSQSYLEDRKPYCSRLEKEDSTDFKKLYEQILAENEKLKAQLHDTNMELTDLKLQLEKTTQRQERFADRSLLEMEKRVSGKSQYLLGGKKSSRKKDI
notes: Native subunit, met as the M110 band of blotted PP1M or inside PP1M; also called 110 kDa subunit; Ch1
B8: binds [8].

B9: M110-(R714-I1004), C-terminal 291 residues of the chicken gizzard M110 subunit (other)
chain: RSTRTREQENEEKEKEEKEKQDKEKQEEKKESETKDDDYRQRYSRTVEEPYHRYRPTSTSTSTSSTSSLSTSTSSLSSSSQLNRPNSLIGITSAYSRSGTKESEREGGKKEEEKEEDKSQPKSIRERRRPREKRRSTGVSFWTQDSDENEQEHQSDSEEGTNKKETQSDSLSRYDTGSLSVSSGDRYDSAQGRSGSQSYLEDRKPYCSRLEKEDSTDFKKLYEQILAENEKLKAQLHDTNMELTDLKLQLEKTTQRQERFADRSLLEMEKRVSGKSQYLLGGKKSSRKKDI
notes: Expressed from pT7-7
B9: binds [9].

B10: GST-M110-(M1-S477) (other)
chain: MKMADAKQKRNEQLKRWIGSETDLEPPVVKRQKTKVKFDDGAVFLAACSSGDTDEVLKLLHRGADINYANVDGLTALHQACIDDNVDMVKFLVENGANINQPDNEGWIPLHAAASCGYLDIAEFLIGQGAHVGAVNSEGDTPLDIAEEEAMEELLQNEVNRQGVDIEAARKEEERIMLRDARQWLNSGHISDVRHAKSGGTALHVAAAKGYTEVLKLLIQAGYDVNIKDYDGWTPLHAAAHWGKEEACRILVDNLCDMETVNKVGQTAFDVADEDILGYLEELQKKQNLLHSEKRDKKSPLIESTANMENNQPQKTFKNKETLIIEPEKNASRIESLEQEKADEEEEGKKDESSCSSEEDEEDDSESEAETDKTKPMASVTNAHTASTQAAPAAVTTPTLSSNQGTPTSPVKKFPTSTTKISPKEEERKDESPASWRLGLRKTGSYGALAEITASKEAQKEKDTAGVIRSASSPRLSSAANSISSLIHRD
notes: as for B6
B10: no binding [7].
